Assay results: patent US20260109774A1 (JUNO THERAPEUTICS, published 2026)
One block for each binder: values may come before it.

Key:
[1] = biological target: T1, human B-cell maturation antigen (BCMA) on cells (human, UniProt Q02223 1-184); test: flow cytometry on BCMA-expressing HEK293 cells vs control cells, crude lysate or bacterial supernatant; clone listed in Table E2
T1 construct: Recombinant on HEK293 or K562 cells, or endogenous on cell lines (H929, RPMI 8226, OPM2, MM1S, Daudi); also called hBCMA; huBCMA
T1 chain: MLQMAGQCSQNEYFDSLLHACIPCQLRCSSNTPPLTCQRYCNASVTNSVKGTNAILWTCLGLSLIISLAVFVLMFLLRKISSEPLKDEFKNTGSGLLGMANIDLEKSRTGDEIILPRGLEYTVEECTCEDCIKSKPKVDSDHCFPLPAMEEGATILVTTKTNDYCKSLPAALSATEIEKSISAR
Experimental: Specific binding of resulting scFv clones to BCMA-expressing HEK293 cells, as compared to control cells not expressing BCMA, was assessed by flow cytometry either with in vitro translated crude cell lysate or with bacterially-produced supernatant.

[2] = biological target: T2, human BCMA peptide 30SNTPPLTCQR39 (human); test: CLIPS peptide array, ELISA
T2 construct: Could be recognized in a linear form
T2 peptide: SNTPPLTCQR
Experimental: (§1) Mapping was carried out using anti-BCMA scFv clones, such as those fused with mouse Fc (scFv-mFc).
(§2) Linear and conformational peptide libraries of amino acid residues 1-54 of human BCMA (set forth as amino acid residues 1-54 of SEQ ID NO:367) were generated based on a combinatorial matrix design. Linear peptides and structural mimetics including single loop, a-helix, 3-turn, combinatorial and linear disulfide bridge mimics, and discontinuous epitope mimics were used, along with positive and negative control peptides, on an amino-functionalized solid support.
(§3) Affinities for binding to the peptides in the epitope library were determined using ELISA. The peptide arrays were incubated with a solution containing the scFv overnight at 4° C. Affinity information was used in iterative screens to define the sequence and conformation of epitopes. Heat maps of affinity information for two or more loops were generated.

[3] = biological target: T3, recombinant human BCMA-hFc (human, UniProt Q02223 1-54, biotinylated in the kinetic exclusion assay of paragraph 546); test: Biacore-based assay (SPR)
T3 construct: also called rhBCMA hFc; recombinant human BCMA fusion protein
T3 sequence: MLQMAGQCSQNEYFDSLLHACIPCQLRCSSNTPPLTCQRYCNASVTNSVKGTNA

[4] = biological target: T1, human B-cell maturation antigen (BCMA) …; test: membrane proteome array on transfected HEK293 cells (Retrogenix)
[5] = biological target: T4, BCMA-Fc (soluble human BCMA fused at its C-terminus to an Fc region of IgG) (human, UniProt Q02223 1-54); test: flow cytometry, T cells transduced with Non-SSE construct, CD8 gate, recombinant BCMA-Fc (rBCMA) staining against surrogate marker
T4 construct: also called hBCMA-Fc; hBMCA-Fc
T4 sequence: T3 sequence
Experimental: (§4) Lentiviral constructs containing anti-BCMA CAR-encoding polynucleotides with starting and optimized sequences, respectively, as described in Example 3, were transduced into T cells and transduced cells were analyzed for transduction (based on expression of a surrogate marker) and for CAR expression based on binding to recombinant BCMA-Fc fusion protein by flow cytometry.

[6] = biological target: T3, recombinant human BCMA-hFc; test: kinetics exclusion assay, CAR expressed on a Jurkat T cell line, rhBCMA hFc in solution; CAR on Jurkat cells, kinetics exclusion assay (not the scFv-Fc by Biacore)
Experimental: A CAR with a BCMA-55-derived scFv binding domain, a modified IgG-derived CH2-CH3-hinge spacer, a CD28 transmembrane domain, and 41BB and CD3zeta endodomain, was expressed in a Jurkat T cell line. Kinetics of binding by the CAR to recombinant human BCMA-hFc (rhBCMA hFc) was assessed using a kinetics exclusion assay. Affinity of binding of an Fc fusion protein containing the scFv portion of the CAR (scFv-Fc) to recombinant human BCMA fusion protein was also assessed using a Biacore-based assay.

[7] = biological target: T4, BCMA-Fc (soluble human BCMA fused at …); test: flow cytometry, T cells transduced with O/SSE construct, CD4 gate, recombinant BCMA-Fc (rBCMA) staining against surrogate marker
Experimental: as §4

[8] = biological target: T4, BCMA-Fc (soluble human BCMA fused at …); test: flow cytometry, T cells transduced with Non-SSE construct, CD4 gate, recombinant BCMA-Fc (rBCMA) staining against surrogate marker
Experimental: as §4

[9] = biological target: T3, recombinant human BCMA-hFc; test: KinExA kinetic exclusion assay, CAR-expressing Jurkat cells titrated into 20 nM or 1 nM biotinylated rhBCMA hFc
[10] = biological target: T4, BCMA-Fc (soluble human BCMA fused at …); test: flow cytometry, T cells transduced with O/SSE construct, CD8 gate, recombinant BCMA-Fc (rBCMA) staining against surrogate marker
Experimental: as §4

[11] = biological target: T5, human BCMA amino acid residues 1-54 (linear and conformational peptide libraries) (human, UniProt Q02223 1-54); test: CLIPS peptide array, ELISA
T5 construct: Presented as CLIPS peptide arrays (linear peptides and structural mimetics) on a solid support
T5 sequence: T3 sequence
Experimental: as §1, §2, §3

B2: BCMA-55 scFv-Fc fusion protein (Fc fusion, not shown: a dimerising Fc or GST)
chain: QSALTQPASVSASPGQSIAISCTGTSSDVGWYQQHPGKAPKLMIYEDSKRPSGVSNRFSGSKSGNTASLTISGLQAEDEADYYCSSNTRSSTLVFGGGTKLTVLGSRGGGGSGGGGSGGGGSLEMAEVQLVQSGAEMKKPGASLKLSCKASGYTFIDYYVYWMRQAPGQGLESMGWINPNSGGTNYAQKFQGRVTMTRDTSISTAYMELSRLRSDDTAMYYCARSQRDGYMDYWGQGTLVTVSS
notes: also called BCMA-55-Fc
Kd [3]: ~10 nM | binding result [4]: binds

B3: BCMA-55-LS CAR (other)
chain: QSALTQPASVSASPGQSIAISCTGTSSDVGWYQQHPGKAPKLMIYEDSKRPSGVSNRFSGSKSGNTASLTISGLQAEDEADYYCSSNTRSSTLVFGGGTKLTVLGSRGGGGSGGGGSGGGGSLEMAEVQLVQSGAEMKKPGASLKLSCKASGYTFIDYYVYWMRQAPGQGLESMGWINPNSGGTNYAQKFQGRVTMTRDTSISTAYMELSRLRSDDTAMYYCARSQRDGYMDYWGQGTLVTVSSESKYGPPCPPCPAPPVAGPSVFLFPPKPKDTLMISRTPEVTCVVVDVSQEDPEVQFNWYVDGVEVHNAKTKPREEQFQSTYRVVSVLTVLHQDWLNGKEYKCKVSNKGLPSSIEKTISKAKGQPREPQVYTLPPSQEEMTKNQVSLTCLVKGFYPSDIAVEWESNGQPENNYKTTPPVLDSDGSFFLYSRLTVDKSRWQEGNVFSCSVMHEALHNHYTQKSLSLSLGKMFWVLVVVGGVLACYSLLVTVAFIIFWVKRGRKKLLYIFKQPFMRPVQTTQEEDGCSCRFPEEEEGGCELRVKFSRSADAPAYQQGQNQLYNELNLGRREEYDVLDKRRGRDPEMGGKPRRKNPQEGLYNELQKDKMAEAYSEIGMKGERRRGKGHDGLYQGLSTATKDTYDALHMQALPPR
notes: Chimeric antigen receptor on T cells or Jurkat cells; also called BCMA-55-LS-O/SSE CAR; BCMA-55-LS CAR O/SSE
% of cells in Q1 (rBCMA+ marker-) [5]: 7.95% | % of cells in Q3 (rBCMA- marker+) [5]: 6.75% | % of cells in Q4 (rBCMA- marker-) [5]: 48.8% | Kd [6]: ~1 nM | % of cells in Q1 (rBCMA+ marker-) [7]: 1.9% | % of cells in Q3 (rBCMA- marker+) [7]: 4.89% | % of cells in Q4 (rBCMA- marker-) [7]: 43% | % of cells in Q1 (rBCMA+ marker-) [8]: 8.66% | % of cells in Q3 (rBCMA- marker+) [8]: 6.35% | % of cells in Q4 (rBCMA- marker-) [8]: 40.9% | Kd [9]: ~1.46 nM | % of cells in Q1 (rBCMA+ marker-) [10]: 2.47% | % of cells in Q3 (rBCMA- marker+) [10]: 6.39% | % of cells in Q4 (rBCMA- marker-) [10]: 47.8%

B4: BCMA-26 scFv (scFv)
scFv: EVQLVESGGGLVKPGGSLRLSCAASGFTFSDYYMSWIRQAPGKGLEWVSYISSSGSTIYYADSVKGRFTISRDNAKNSLYLQMNSLRAEDTAVYYCAKVDGPPSFDIWGQGTMVTVSSGGGGSGGGGSGGGGSSYVLTQPPSVSVAPGQTARITCGANNIGSKSVHWYQQKPGQAPMLVVYDDDDRPSGIPERFSGSNSGNTATLTISGVEAGDEADYFCHLWDRSRDHYVFGTGTKLTVL
binding result [1]: binds | binding result [11]: binds

Other lines, results leading:

binding result [1]: binds | binding result [2]: binds
B1: BCMA-25 scFv (scFv)
scFv: EVQLVQSGGGLVQPGRSLRLSCTASGFTFGDYAMSWFRQAPGKGLEWVGFIRSKAYGGTTEYAASVKGRFTISRDDSKSIAYLQMNSLKTEDTAVYYCAAWSAPTDYWGQGTLVTVSSGGGGSGGGGSGGGGSDIQMTQSPAFLSASVGDRVTVTCRASQGISNYLAWYQQKPGNAPRLLIYSASTLQSGVPSRFRGTGYGTEFSLTIDSLQPEDFATYYCQQSYTSRQTFGPGTRLDIK

binding result [1]: binds | binding result [11]: binds
B5: BCMA-9 scFv (scFv)
scFv: EVQLVQSGGGLVKPGGSLRLSCAASGFTFSDYYMSWIRQAPGKGLEWVSYISSSGSTIYYADSVKGRFTISRDNAKNSLYLQMNSLRAEDTAVYYCARVDGDYVDDYWGQGTLVTVSSGGGGSGGGGSGGGGSSYELTQPPSVSVAPGQTARVTCGANNIGSKSVHWYQQKPGQAPMLVVYDDDDRPSGIPERFSGSNSGNTATLTISGVEAGDEADYFCHVWDRSRDHYVFGTGTKLTVL

binding result [11]: binds
B6: BCMA-52-scFv-mFc (Fc fusion, not shown: a dimerising Fc or GST)
chain: SYELTQPPSASGTPGQRVTMSCSGTSSNIGSHSVNWYQQLPGTAPKLLIYTNNQRPSGVPDRFSGSKSGTSASLAISGLQSEDEADYYCAAWDGSLNGLVFGGGTKLTVLGSRGGGGSGGGGSGGGGSLEMAEVQLVQSGAEVKKPGESLKISCKGSGYSFTSYWIGWVRQMPGKGLEWMGIIYPGDSDTRYSPSFQGHVTISADKSISTAYLQWSSLKASDTAMYYCARYSGSFDNWGQGTLVTVSS
notes: also called BCMA-52 scFv fused with mouse Fc
